Reference: the supplement of paper PMC9170038

Tested on: MS2 coat protein
Experiment: apparent KD of MS2 coat protein; designed switch direction (-1 OFF switch, 1 ON switch): -1; higher = weaker reporter binding
Procedure, shortened: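 The apparent KD reported per design is the median over clusters of curve fits to normalised cluster fluorescence. The RNA switches were transcribed on Illumina chips by stalled E. coli RNA polymerase. SNAP-549-labelled MS2 coat protein was titrated from 0.7 or 1.5 nM, doubling up to 3 µM, in Tris-HCl pH 7.5 buffer containing KCl, MgCl2, BSA, DTT, tRNA and Tween-20, with no input, 200 uM small-molecule ligand, or an oligonucleotide input.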

[1] = Eterna round: R95, input ligand: microRNA oligo, concentration not stated
[2] = input ligand: microRNA oligo, concentration not stated
[3] = Eterna round: R95, input ligand: FMN 200 uM
[4] = Eterna round: R95, input ligand: none

Row | Sequence | apparent KD of MS2 coat protein (input ligand: FMN 200 uM) | apparent KD of MS2 coat protein (input ligand: none) | apparent KD of MS2 coat protein [1] | apparent KD of MS2 coat protein [2] | apparent KD of MS2 coat protein [3] | apparent KD of MS2 coat protein [4]
1 | GAGUGCUGAGGAUAUACAUGAGGAUCACCCAUGUGCUUCAGCUAGGAGACUAGCAUCGGUAGAAGGCAGUACUC [Mod of lroppy 18 - Jieux - Exclusion 3] (Eterna round: R97, puzzle: Exclusion 3) | 0.0601 µM | 0.0172 µM | – | – | – | –
2 | UAGAUGGGAGGAUAUACAUAGAUACAGAUUCGUGUAGUGCUACAUGAGGAUCACCCAUGUAGAAGGCCCGUCUU [JL-ex2-2.21 Mayanne mod] (puzzle: Exclusion 2) | – | – | 0.0152 µM | – | – | –
3 | GGGCUCGGUGUGAGGAUAUCGGGCCCGAAAGGGCCCGAGAAGGCACAUGAGGAUCACCCAUGUAAGUCGGGCUC [-38.1, -37 kcal, A 23%, 0-4] (Eterna round: R97, puzzle: Brourd's mod of Exclusion 4) | 0.0136 µM | 0.0141 µM | – | – | – | –
4 | AUAAUAUAUGUAGGAUAUCUGCACGUGUAGUGCAGAGAAGGACAUGAGGAUCACCCAUGUAAUUAAGAUCAAUUAUUAAAUUAU [ENG1/4-B3] (Eterna round: R96, puzzle: Exclusion NG 1) | 0.0838 µM | 0.0381 µM | – | 0.0355 µM | – | –
5 | CAGUACUGAGGAUAUACAUGAGGAUCACCCAUGUCUUCCAGCUAGGAAACUAGCAAAUGUAGAAGGCAGUACUG [Salish 065 m9] (Eterna round: R97, puzzle: Exclusion 3) | 0.639 µM | 0.0718 µM | – | – | – | –
6 | UAUAUAUAGUAAGGAUAUGUAUAUAUUUUAUCAACAGAAGGUACUGACAUGAGGAUCACCCAUGUUUUAGUGUGGGCAUGUAGA [JMF's solution 71] (Eterna round: R96, puzzle: Exclusion NG 1) | – | – | – | 0.0542 µM | – | –
7 | GAUUGAGAGCAGGAUAUAUUCCUGAUGUAUGAAGUAGAAGGGCUCACAUGAGGAUCACCCAUGUGAUCCUGAAA [Mat - Exclusion 6 - Eli Mod - D3] (Eterna round: R97, puzzle: Exclusion 6) | 0.0138 µM | 0.014 µM | – | – | – | –
8 | UGUUGGCGAGGAUAUACAUGAGGAUCACCCAUGUGAGAGAAAAAAGUGAGGAAGAAAAGUAGAAGGCGCUGACU [salish99_ex3_r3_044] (puzzle: Exclusion 3) | – | – | 0.044 µM | – | 0.254 µM | 0.0518 µM
9 | GCCUGCUGGCGAGGAUAUUCUGUGCGGUUCCGGCUCGUGUCUGUUACAUGAGGAUCACCCAUGUGGGAGAAGGUGUCUGUGGCC [Design 100] (Eterna round: R96, puzzle: Exclusion NG 2) | 0.0125 µM | 0.0147 µM | – | 0.0101 µM | – | –
10 | AAAAGAAUAGGAUAUACAUGAGGAUCACCCAUGUGAGGGCACGGCCGGCGCGGGCCCGGUAGAAGGAUUCAAAA [Exc;s3-X] (puzzle: Exclusion 3) | – | – | 0.0225 µM | – | 0.0231 µM | 0.0256 µM
11 | AUGAGACAUGAGGAUCACCCAUGUGAGGAUAUGUAUGGAUGGUAGAAAGAAUGAAAGAACAGAAGGCACGUAGA [JR_Exclu1_Sub061] (puzzle: Exclusion 1) | – | – | 0.15 µM | – | 0.143 µM | 0.21 µM
12 | AACUCUAAGCAGGAUAUCUAGCAAACGUCCGCAAGAGAAGGGCUUACAUGAGGAUCACCCAUGUAAGGAUGAUC [Reorzainar] (puzzle: Exclusion 6) | – | – | 0.026 µM | – | 0.0488 µM | 0.0249 µM
13 | AGUCGAAAGACCCACAUGGACAUGAGGAUCACCCAUGUACAAGCCUUUUGCUCGUCACUAUCGUCAAAAGACGAUAG [Omei Mir Offv1 A2] (Eterna round: R97, puzzle: Sensor, turn-off variant 1) | 0.0308 µM | 0.0418 µM | – | – | – | –
14 | CGGUGCUGAGGAUAUACAUGAGGAUCACCCAUGUGUUCCAGCUAGGUGACUGGCAGAUGUAGAAGGCGGUACUG [JL-ex3-3.38 Brourd mod] (puzzle: Exclusion 3) | – | – | 0.0986 µM | – | 0.0722 µM | 0.102 µM
15 | CCUCAGUAAGGAUAUCAGCUUAGUAGGUUGGUAAUGAGAGCUGAGAAGGUACAUGAGGAUCACCCAUGUUAGUU [JL Zatite mod 10] (puzzle: Exclusion 4) | – | – | 0.0288 µM | – | – | –
16 | CGCUAGUCAGGAUAUACGAACAUGUCAAAAGACGUGAAGGGACAUGAGGAUCACCCAUGUAGAAGGGACUAGCG [Mat - Exclusion 2 - JL mod - D4] (Eterna round: R96, puzzle: Exclusion 2) | 0.256 µM | 0.0322 µM | – | 0.0213 µM | – | –
17 | AUAAUAAAGGAGGAUAUCGUUUCGGAAACGAAACGAGAAGGUCUAACAUGAGGAUCACCCAUGUUCCUCAAAUA [Mat - Exclusion 6 - Eli Mod - D52] (puzzle: Exclusion 6) | – | – | 0.0333 µM | – | 0.0664 µM | 0.0535 µM
18 | CUCCCUUCAGGAUAUACAUGAGGAUCACCCAUGUGUUCCAGCUAGGAAACUAGCAAAUGUAGAAGGGAAGGGAG [Mat - Exclusion 3 - JL Mod - D4] (Eterna round: R97, puzzle: Exclusion 3) | 0.183 µM | 0.09 µM | – | – | – | –
19 | GGUUGGCGAGGAUAUACAUGAGGAUCACCCAUGUGAGAGAAAAAAGUGAGGAACAAAAGUAGAAGGCGCUGACG [salish99_ex3_r3_033] (puzzle: Exclusion 3) | – | – | 0.0485 µM | – | 0.183 µM | 0.0583 µM
20 | ACAUGUAAUGCAGGAUAUGGGACACAUGAGGAUCACCCAUGUGACCAGAUGUAAUGCUAAGAGUCUCAGAAGGGUAUGUACAUG [Ex NG2 #48] (Eterna round: R96, puzzle: Exclusion NG 2) | 0.0178 µM | 0.0178 µM | – | 0.0132 µM | – | –
21 | GAUCAUGCAGGAUAUACAGUUUCCAUGAAAACAUGGACCUCACAUGAGGAUCACCCAUGUAGAAGGGCAUGAUC [Omei Ex2 A27] (Eterna round: R97, puzzle: Exclusion 2) | 0.982 µM | 0.443 µM | – | – | – | –
22 | UUAGAAUUGUUAGGAUAUUAAUUAUUGUAUAGUAUGAUCUACAUGAGGAUCACCCAUGUUAAAUAUAAGAAGGAACGUUAGAUU [JR_ExcNG2_Sub094] (Eterna round: R96, puzzle: Exclusion NG 2) | – | – | – | 0.0423 µM | – | –
23 | CUCCUCAUGACGCCUAAACACAUGAGGAUCACCCAUGUACAGGCUUUUUGUCGUCUUAUAAUAAAACCGAGGAGGCG [Inletice] (puzzle: Sensor v3, turn-off variant 1) | – | – | 0.0659 µM | – | 0.0146 µM | 0.015 µM
24 | CUUUGAUGAGGAUAUCGAGGUUAGUACAUGAGGAUCACCCAUGUUAUCCAGGUGUCGGAUCGAGAAGGUAUUGGAC [LRO-Ex5-18] (puzzle: Exclusion 5) | – | – | 0.0148 µM | – | – | –
25 | UAAUAGUCAGGAUAUACAUGAGGAUCACCCAUGUAGAAAUGAACCUGGGUUCUCCUAGGUAGAAGGGACAAAAG [Geerqu] (puzzle: Exclusion 3) | – | – | 0.0227 µM | – | 0.0287 µM | 0.0241 µM
26 | GGAUAUAGGCGAGGAUAUACGCACCACUAACGAGUAGAAGGCGCACAUGAGGAUCACCCAUGUGAGUUCUCAAUAUGAUACACG [Prohibition 70 - Jieux - Exclusion NG 1] (Eterna round: R96, puzzle: Exclusion NG 1) | 0.0149 µM | 0.0186 µM | – | 0.0141 µM | – | –
